Laboratory results: US20110002929A1

Biological target: human RANK-L (human) (UniProt O14788)
Test: cell-based or functional assay

Chain of human RANK-L (human) (O14788 140-317 limits assumed): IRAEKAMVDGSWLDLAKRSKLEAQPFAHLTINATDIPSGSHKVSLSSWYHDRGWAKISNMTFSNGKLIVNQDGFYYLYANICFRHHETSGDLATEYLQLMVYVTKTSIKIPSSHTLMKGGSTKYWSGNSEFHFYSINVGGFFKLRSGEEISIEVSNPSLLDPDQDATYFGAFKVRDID

RANK-L induced NF-kappaB activation (luciferase reporter, HEK293T cells), IC50: 6.03 nM
Substance: osteoprotegerin (from UniProt O00300 22-401) (receptor)
